Results: patent US11672867B2, “Protein-templated self-assembly of a covalent polymer network for intracellular trafficking and traceless release” (University of Massachusetts, priority 2017, dated 2023)

Columns and labels:
[1] = Dynamic light scattering particle size; assay type: physicochemical; conditions: 1 mg/mL, phosphate buffer pH 7.4
Experimental: (§1) Dynamic light scattering (DLS) and zeta potential measurements were performed using a Malvern Nanozetasizer-ZS. All samples were diluted with phosphate buffer pH 7.4 to adjust final concentration to 1 mg/mL.

[2] = tested on: HeLa cells; experiment: Cell viability with alamarBlue assay; assay type: cell-based, Human; conditions: 72 h
Experimental: Human cervical carcinoma (HeLa) cells were cultured in T75 cell culture flask containing Dulbecco's Modified Eagle Medium/Nutrient Mixture F-12 (DMEM/F12) in a humidified incubator with 5% CO2 at 37° C. Culture media was supplemented with 10% fetal bovine serum (FBS), 1% L-glutamine and 1% antibiotic-antimycotic (100 units/mL of penicillin, 100 μg/mL of streptomycin, and 0.25 μg/mL of Amphotericin B).
HeLa cells were seeded into 96-well tissue culture plates at a density of 5000 cells/well/100 μL sample and incubated at 37° C. After 24 h, culture media was replaced and cells were treated with different concentrations of protein-polymer conjugates and control protein samples (0.1 mg/mL to 2 mg/mL protein concentration) in 100 μL media. All samples were incubated for 6 h at 37° C., then the media was replaced and incubated for another 66 h at 37° C. Afterwards media was replaced, washed with PBS buffer for three times and each well was treated with 100 μL 10% alamarBlue in media with serum. Finally, samples were incubated for 1 h and subjected to fluorescence measurement with SpectraMax® M5 at 560 nm excitation/590 nm emission wavelength in a black 96-well flat bottomed plate. Cellular viability of the small molecule byproducts were assessed using a similar protocol.

[3] = Release kinetics of proteins from nanoassemblies (DTT, SDS-PAGE); conditions: reducing conditions (DTT)
Experimental: 30 μL of different samples containing NA-Empty^ED, NA-Empty^PEG, NA-Lys^ED, NA-Lys^PEG, NA-RNaseA^ED, NA-RNaseA^PEG, NA-CytC^ED and NA-CytC^PEG were mixed with 10 μL of loading buffer (DTT free) and 25 μL of each sample was loaded on acrylamide gel. For release experiment, identical protein-polymer conjugate samples were treated with 10 mM DTT and incubated at 37° C. for 4 h before subjecting to acrylamide gel electrophoresis. To calculate the amount of released protein from each sample, standard curves were generated from the known concentrations of pure protein samples loaded into the gel lanes. The gel image analysis and quantification were performed with Bio-Rad Image Lab™ software.
To monitor the release kinetics of proteins (lysozyme, RNase A and cytochrome C), 30 μL of NA-Lys^ED, NA-Lys^PEG, NA-RNaseA^ED, NA-RNaseA^PEG, NA-CytC^ED and NA-CytC^PEG samples were incubated at 37° C. with requisite amounts of 10 mM DTT for different time intervals. After each incubation time, samples were collected and immediately frozen at −20° C. Finally, all samples were subjected to SDS-PAGE analysis to quantify the amount of released proteins. Encapsulation and release studies with variations in DTT concentrations and crosslinker concentrations were carried out using similar experimental protocols.

[4] = Encapsulation efficacy and loading capacity (Pierce 660 nm Protein Assay of filtrate); assay type: physicochemical; conditions: for Amount of protein encapsulated, μg (Initial dose = 1 mg): 10 mg P1, 1 mg protein, back-calculated from filtrate
Experimental: All nanoassemblies were evaluated for amount of protein encapsulation after conjugation and cross-linking process. Protein concentration in each sample was measured from the filtrate after crosslinking reaction and the amount of protein was back-calculated in the conjugate. An absorbance based assay (with Pierce™ 660 nm Protein Assay Reagent) was utilized to quantify the protein amount. The encapsulation efficiency (EE) and loading capacity (LC) were calculated based on the following formulas: […]

[5] = Crosslinking density from released 4-nitrophenol (UV-Vis, 400 nm); assay type: physicochemical; conditions: adjusted for ~1% hydrolysis of control polymer
Experimental: The conjugation process and cross-linking density for the protein-polymer conjugates can be evaluated by UV-Vis spectroscopy. The amount of released 4-nitrophenol was monitored at its λmax 400 nm (measured molar extinction co-efficient≈12.14*10^3 L M^−1 cm^−1 at 400 nm). For each absorbance measurement, samples were diluted to twenty times, for e.g. 50 μL of sample was diluted 1 mL with distilled water. Cross-linking density was calculated by assuming that formation of a single chain crosslinking bond would require cleavage of two NPC units and produce two 4-nitrophenol molecules.
Ratio of NPC:PEG in the polymer, P1=50:50
Molecular weight of repeating NPC-unit=387 g/mol
Amount of polymer used=0.1 mg/mL for each absorbance measurement
From Beer-lamber's law: A=ε.c.1 and path-length=1 cm
Thus, moles of 4-nitro phenol in 1 mL solution=3.04*10^−8
This represents is 23.5 mol % of total NPC unit. As it is assumed that two 4-nitro phenol are released per crosslinking bond formation and NPC unit is 50 mol % of total polymer. Therefore, crosslinking density=23.5/2*0.5=5.9%
Hydrolysis from control polymer sample contributes ˜1% towards cross-linking density and adjusted for all calculations. Crosslinking densities for all other conjugates were calculated based on the above method and summarized below: […]

[6] = Calculation of number of proteins per particle; assay type: physicochemical; conditions: from DLS diameters, sphere packing efficiency ~74%
Text: Calculation of Number of Proteins Per Particle: Example for NA-Lys^ED: Diameter of nanoassembly, D=9.7 nm, radius, R=4.85 nm Volume of each particle, VPPC=(4/3)πR^3=(4/3) π(4.85)^3 nm^3=477.6×10^−21 cm^3 Again, for lysozyme, diameter of protein, d=3.6 nm, radius, r=1.8 nm Volume of each protein, VLy=(4/3)πr^3=(4/3) π(1.8)^3 nm^3=24.4×10^−21 cm^3 Assuming that maximum sphere packing efficiency to be ˜74%,^ii number of lysozyme per nanoassembly to be=(477.6×10^−21/24.4×10^−21)×(0.74)=14 The results for all other nanoassemblies are summarized below: […]

[7] = Zeta potential measurement; assay type: physicochemical; conditions: 1 mg/mL, phosphate buffer pH 7.4
Experimental: as §1

cytochrome C
Size, nm (hydrodynamic diameter, DLS) [1]: 4.3 ± 0.1 nm
Size, nm (hydrodynamic diameter, DLS) ([1]; listed as native CytC): ~4 nm
Cell viability [2]: lack of toxicity
Order of overall kinetics of protein release [3]: CytC<RNaseA<Lys

lysozyme
Size, nm (hydrodynamic diameter, DLS) [1]: 3.6 ± 0.4 nm
Order of overall kinetics of protein release [3]: CytC<RNaseA<Lys

B1: ribonuclease A (protein, UniProt P61823 27-150, looked up)
Ribonuclease pancreatic: KETAAAKFERQHMDSSTSAASSSNYCNQMMKSRNLTKDRCKPVNTFVHESLADVQAVCSQKNVACKNGQTNCYQSYSTMSITDCRETGSSKYPNCAYKTTQANKHIIVACEGNPYVPVHFDASV
notes: native protein from Sigma-Aldrich, model cargo
Size, nm (hydrodynamic diameter, DLS) [1]: 3.3 ± 0.2 nm
Order of overall kinetics of protein release [3]: CytC<RNaseA<Lys

B2: NA-RNaseA^PEG: RNase A conjugated to polymer P1 and crosslinked with (PEO)4-bis-amine; nanoassembly (conjugate, UniProt P61823 27-150, looked up)
Ribonuclease pancreatic: B1 Ribonuclease pancreatic
modifications: polymer P1 conjugate, PEO4-bis-amine crosslinked nanoassembly
notes: RNase A conjugated to polymer P1 and crosslinked with (PEO)4-bis-amine; nanoassembly
Loading capacity (LC), % [4]: 5.5%
Amount of protein encapsulated, μg (Initial dose = 1 mg) [4]: 553 µg
Crosslinking density, % [5]: 5.1%
# of Protein per PPC particle [6]: 18
Zeta potential, mV [7]: −8.7 ± 0.7 mV
Size, nm (hydrodynamic diameter, DLS) [1]: 9.5 ± 0.1 nm

B3: NA-RNaseA^ED: RNase A conjugated to polymer P1 and crosslinked with ethylenediamine; nanoassembly (conjugate, UniProt P61823 27-150, looked up)
Ribonuclease pancreatic: B1 Ribonuclease pancreatic
modifications: polymer P1 conjugate, ethylenediamine-crosslinked nanoassembly
Loading capacity (LC), % [4]: 5.6%
Amount of protein encapsulated, μg (Initial dose = 1 mg) [4]: 558 µg
Crosslinking density, % [5]: 5.1%
# of Protein per PPC particle [6]: 16
Zeta potential, mV [7]: −8.2 ± 0.7 mV
Size, nm (hydrodynamic diameter, DLS) [1]: 9.1 ± 0.1 nm
